# Reference: patent US20250043003A1 (ONCOC4, published 2025)
# T1: CTLA-4 (antigen of the affinity measurement of Table 1) (UniProt P16410 36-161, limits assumed)
# T1 construct: Antigen form and method of the KD measurement are not described
# T1 sequence (looked up): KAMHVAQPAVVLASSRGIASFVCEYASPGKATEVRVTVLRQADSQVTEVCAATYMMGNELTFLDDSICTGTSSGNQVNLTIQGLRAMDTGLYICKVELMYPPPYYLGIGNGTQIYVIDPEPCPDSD
# T2: His-hCTLA-4 (polyhistidine-tagged CTLA-4) (human, UniProt P16410 36-161)
# T2 construct: Coated on ELISA plates at 0.5 ug/ml; not shown: polyhistidine tag
# T2 sequence (looked up): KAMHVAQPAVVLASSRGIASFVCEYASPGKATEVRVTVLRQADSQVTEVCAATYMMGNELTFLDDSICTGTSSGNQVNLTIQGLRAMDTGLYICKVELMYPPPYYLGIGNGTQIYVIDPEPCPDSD
# Key:
# [1] = molecular target: His-hCTLA-4 (polyhistidine-tagged CTLA-4) (human) (UniProt P16410); test: ELISA, plate-coated His-hCTLA-4, antibody 1 ug/ml, pH 5.5 against pH 7.0
# [2] = molecular target: T1, CTLA-4 (antigen of the affinity …); test: affinity, method not stated
# [3] = molecular target: T2, His-hCTLA-4 (polyhistidine-tagged …); test: ELISA, plate-coated His-hCTLA-4, antibody 1 ug/ml, pH 5.5 against pH 7.0
# Experimental: FIG. 1A-B. pH-sensitivity of TremeIgG1 and its variants. His-hCTLA-4 (0.5 μg/ml) was coated in ELISA plates and different anti-CTLA-4 mAbs were added at 1 μg/ml in the buffer over a pH range of 4.5 to 7.0. pH indicated represents binding and washing conditions. Antibodies bound to CTLA-4 were measured using horse-radish perioxidase-labeled anti-human IgG antibodies.
# In order to validate the approach, the activity of the Tremelimumab mutant antibodies was evaluated. To determine if the introduction of histidine to the CDR regions affects the pH sensitivity of the antibodies, the antibody binding to its antigen, polyhistidine-tagged CTLA-4, was measured over a pH range. As a control, HL12, which is known to bind CTLA-4 in a pH-dependent manner, with reduced binding at low/acidic pH, was used.
binding at pH 5.5 relative to neutral pH (pH 7.0) [1],Kd [2],binding at pH 5.5 relative to neutral pH (pH 7.0) [3],Binder
< 50%,,,"HL12 (antibody, from another filing, V domains shown) VH: QVQLQESGPGLVKPSETLSLTCTVSGFSLTSYGLSWIRQPPGKGLEWIGYIWYDGNTNFHPSLKSRVTISKDTSKNQFSLKLSSVTAADTAVYYCAKTEGHYYGSNYGYYALDYWGQGTSVTVSS VL: DIQMTQSPSSLSASVGDRVTITCRASENIYSNLAWYQQKQGKAPKLLLYAATNLQDGVPSRFSGSGSGTDYTLTISSLQPEDFATYFCQHLWGTPYTFGQGTKLEIK"
,0.147 nM,,"AB139 (TremeIgG1) (antibody, V domains shown, Tremelimumab variable regions; also called mAb139; WT TremeIgG1) VH: QVQLVESGGGVVQPGRSLRLSCAASGFTFSSYGMHWVRQAPGKGLEWVAVIWYDGSNKYYADSVKGRFTISRDNSKNTLYLQMNSLRAEDTAVYYCARDPRGATLYYYYYGMDVWGQGTTVTVSS VL: DIQMTQSPSSLSASVGDRVTITCRASQSINSYLDWYQQKPGKAPKLLIYAASSLQSGVPSRFSGSGSGTDFTLTISSLQPEDFATYYCQQYYSTPFTFGPGTKVEIKR"
,4.46 nM,≤ 50%,"AB156 (antibody, IgG1, V domains shown, TremeIgG1 mutant, IgG1; also called Mab156; TremeIgG1M) VH: QVQLVESGGGVVQPGRSLRLSCAASGFTFSSYGMHWVRQAPGKGLEWVAVIWYDGSNKYYADSVKGRFTISRDNSKNTLYLQMNSLRAEDTAVYYCARDPRGATLHHHYYGMDVWGQGTTVTVSS VL: DIQMTQSPSSLSASVGDRVTITCRASQSINSYLDWYQQKPGKAPKLLIYAASSLQSGVPSRFSGSGSGTDFTLTISSLQPEDFATYYCQQYYSTPFTFGPGTKVEIKR"
,2.32 nM,≤ 50%,"AB157 (antibody, IgG1, V domains shown, TremeIgG1 mutant, IgG1; also called TremeIgG1M) VH: QVQLVESGGGVVQPGRSLRLSCAASGFTFSSYGMHWVRQAPGKGLEWVAVIWYDGSNKYYADSVKGRFTISRDNSKNTLYLQMNSLRAEDTAVYYCARDPRGATLYHHYYGMDVWGQGTTVTVSS VL: DIQMTQSPSSLSASVGDRVTITCRASQSINSYLDWYQQKPGKAPKLLIYAASSLQSGVPSRFSGSGSGTDFTLTISSLQPEDFATYYCQQYYSTPFTFGPGTKVEIKR"
,1.23 nM,,"AB154 (antibody, V domains shown, TremeIgG1 mutant, IgG1; also called mAb154; TremeIgG1M) VH: QVQLVESGGGVVQPGRSLRLSCAASGFTFSHHGMHHVRQAPGKGLEWVAVIWYDGSNKYYADSVKGRFTISRDNSKNTLYLQMNSLRAEDTAVYYCARDPRGATLYYYYYGMDVWGQGTTVTVSS VL: DIQMTQSPSSLSASVGDRVTITCRASQSINSYLDWYQQKPGKAPKLLIYAASSLQSGVPSRFSGSGSGTDFTLTISSLQPEDFATYYCQQYYSTPFTFGPGTKVEIKR"
,0.542 nM,≥ 75%,"AB158 (antibody, IgG1, V domains shown, TremeIgG1 mutant, IgG1; also called TremeIgG1M) VH: QVQLVESGGGVVQPGRSLRLSCAASGFTFSSYGMHWVRQAPGKGLEWVAVIWYDGSNKYYADSVKGRFTISRDNSKNTLYLQMNSLRAEDTAVYYCARDPRGATLYHYYYGMDVWGQGTTVTVSS VL: DIQMTQSPSSLSASVGDRVTITCRASQSINSYLDWYQQKPGKAPKLLIYAASSLQSGVPSRFSGSGSGTDFTLTISSLQPEDFATYYCQQYYSTPFTFGPGTKVEIKR"
,0.387 nM,≥ 75%,"AB159 (antibody, IgG1, V domains shown, TremeIgG1 mutant, IgG1; also called TremeIgG1M) VH: QVQLVESGGGVVQPGRSLRLSCAASGFTFSSYGMHWVRQAPGKGLEWVAVIWYDGSNKHHADSVKGRFTISRDNSKNTLYLQMNSLRAEDTAVYYCARDPRGATLYYYYYGMDVWGQGTTVTVSS VL: DIQMTQSPSSLSASVGDRVTITCRASQSINSYLDWYQQKPGKAPKLLIYAASSLQSGVPSRFSGSGSGTDFTLTISSLQPEDFATYYCQQYYSTPFTFGPGTKVEIKR"
